Assay in all cases: EMSA
A general note: In EMSA bound probe runs differently from free probe, usually more slowly.

One data set has as its target T1, CeMETT10-FLΔL (Caenorhabditis elegans, UniProt Q09357 1-479, del386-430).
T1 sequence: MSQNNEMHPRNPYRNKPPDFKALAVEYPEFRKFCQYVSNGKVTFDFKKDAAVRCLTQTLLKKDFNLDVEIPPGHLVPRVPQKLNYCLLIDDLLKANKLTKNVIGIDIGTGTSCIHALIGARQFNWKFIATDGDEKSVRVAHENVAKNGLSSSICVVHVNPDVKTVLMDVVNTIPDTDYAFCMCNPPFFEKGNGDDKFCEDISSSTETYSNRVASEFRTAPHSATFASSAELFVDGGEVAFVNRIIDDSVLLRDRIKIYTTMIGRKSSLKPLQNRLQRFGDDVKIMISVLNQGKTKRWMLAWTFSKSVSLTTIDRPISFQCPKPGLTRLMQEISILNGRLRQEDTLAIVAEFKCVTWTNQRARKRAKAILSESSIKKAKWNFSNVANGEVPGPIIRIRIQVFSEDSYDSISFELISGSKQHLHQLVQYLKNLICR

For another data set, the target named is T2, CeMETT10-FLΔL_RRR/7E (Caenorhabditis elegans, UniProt Q09357 1-479, R360E;A361E;R362E;K363E;R364E;A365E;K366E;del386-430).
T2 sequence: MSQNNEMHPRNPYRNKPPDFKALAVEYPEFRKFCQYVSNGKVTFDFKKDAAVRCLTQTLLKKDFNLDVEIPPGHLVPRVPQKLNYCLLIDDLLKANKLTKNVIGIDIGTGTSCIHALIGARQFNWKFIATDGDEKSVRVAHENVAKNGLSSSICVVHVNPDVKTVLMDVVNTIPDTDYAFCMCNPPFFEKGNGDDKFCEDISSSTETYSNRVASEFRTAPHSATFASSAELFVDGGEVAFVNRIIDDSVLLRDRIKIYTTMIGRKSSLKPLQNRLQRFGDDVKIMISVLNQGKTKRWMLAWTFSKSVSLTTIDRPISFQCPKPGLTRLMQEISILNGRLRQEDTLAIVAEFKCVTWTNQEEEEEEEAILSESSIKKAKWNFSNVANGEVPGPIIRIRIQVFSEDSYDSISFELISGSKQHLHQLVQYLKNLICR

For another data set, the target named is T3, CeMETT10-MTD (Caenorhabditis elegans, UniProt Q09357 1-314).
T3 sequence: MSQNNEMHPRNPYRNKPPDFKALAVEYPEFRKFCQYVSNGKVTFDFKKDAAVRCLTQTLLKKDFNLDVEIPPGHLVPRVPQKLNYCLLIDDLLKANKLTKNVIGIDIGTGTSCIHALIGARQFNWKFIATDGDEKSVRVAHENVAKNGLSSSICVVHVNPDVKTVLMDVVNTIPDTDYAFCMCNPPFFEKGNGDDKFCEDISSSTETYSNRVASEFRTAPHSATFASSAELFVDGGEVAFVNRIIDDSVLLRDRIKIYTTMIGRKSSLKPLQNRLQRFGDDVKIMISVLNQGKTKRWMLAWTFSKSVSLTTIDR

Our source for the Kd values is article PMC10018337.

In general, Kd refers to the free concentration of one partner at which half of the binding sites on the other are occupied at equilibrium, for simple one-to-one binding. Low readings indicate higher affinity, high ones lower affinity.

B1: sams-hp-ls (structured_RNA)
RNA: GGCAACAAUAUGUUUCUUUACCUGUUACAACGGUUACUUUGAUUACAGAAACGGUGACUAAAACGGGUAUGAUCAUGUUGUGCCC
On to B1, for which the Kd with CeMETT10-FLΔL turned out to be 0.14 µM; with CeMETT10-FLΔL_RRR/7E, 8.3 µM; with CeMETT10-MTD, 22.3 µM.
